Experimental data as given in article PMC3501484.

Molecular target: Flk1 (UniProt P35918)
UniProt P35918, sequence (P35918 20-1345): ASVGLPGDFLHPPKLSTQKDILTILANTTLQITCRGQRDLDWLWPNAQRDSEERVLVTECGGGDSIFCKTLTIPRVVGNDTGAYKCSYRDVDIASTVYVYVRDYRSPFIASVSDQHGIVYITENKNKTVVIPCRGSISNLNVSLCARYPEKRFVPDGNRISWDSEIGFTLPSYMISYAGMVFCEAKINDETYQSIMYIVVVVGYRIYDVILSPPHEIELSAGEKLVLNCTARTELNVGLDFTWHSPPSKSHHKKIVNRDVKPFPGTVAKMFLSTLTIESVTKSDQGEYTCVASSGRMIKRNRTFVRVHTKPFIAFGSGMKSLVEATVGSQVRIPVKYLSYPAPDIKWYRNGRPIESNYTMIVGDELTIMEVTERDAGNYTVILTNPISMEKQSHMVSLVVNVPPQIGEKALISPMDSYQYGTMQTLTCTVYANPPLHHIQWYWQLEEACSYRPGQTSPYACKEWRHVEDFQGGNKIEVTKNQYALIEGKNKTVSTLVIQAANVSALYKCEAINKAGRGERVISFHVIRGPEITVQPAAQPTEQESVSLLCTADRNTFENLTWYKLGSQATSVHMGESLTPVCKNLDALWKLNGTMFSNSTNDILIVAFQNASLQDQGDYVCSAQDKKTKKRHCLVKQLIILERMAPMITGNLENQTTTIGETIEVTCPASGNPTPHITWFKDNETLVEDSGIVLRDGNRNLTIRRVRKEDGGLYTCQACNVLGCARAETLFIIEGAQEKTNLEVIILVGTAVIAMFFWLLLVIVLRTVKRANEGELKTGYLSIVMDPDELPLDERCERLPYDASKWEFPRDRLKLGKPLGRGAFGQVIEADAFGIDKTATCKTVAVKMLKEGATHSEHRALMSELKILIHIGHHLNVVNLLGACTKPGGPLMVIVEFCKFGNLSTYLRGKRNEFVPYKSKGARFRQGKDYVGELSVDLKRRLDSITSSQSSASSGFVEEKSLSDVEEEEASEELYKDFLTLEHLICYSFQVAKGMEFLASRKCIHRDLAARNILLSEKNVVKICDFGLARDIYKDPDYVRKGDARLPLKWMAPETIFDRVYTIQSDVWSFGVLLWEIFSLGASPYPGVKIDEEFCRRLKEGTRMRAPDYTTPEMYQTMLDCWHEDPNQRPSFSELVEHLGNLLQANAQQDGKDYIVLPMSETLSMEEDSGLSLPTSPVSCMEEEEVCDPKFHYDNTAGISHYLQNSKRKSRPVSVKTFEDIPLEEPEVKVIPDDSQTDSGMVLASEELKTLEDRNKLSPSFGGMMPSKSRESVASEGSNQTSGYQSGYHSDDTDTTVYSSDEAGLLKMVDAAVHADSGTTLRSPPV

3.9 kb Etv2 luciferase reporter (standardized to Renilla) in 293T cells cotransfected with the Flk1 expression vector, VEGF 50 ng/ml for 2, 6 or 18 hours: 15 fold
Substance: VEGF 165 (ligand)
